What was measured:
[1] = molecular target: pMHC1 complex: Biotin-HLA-A*02:01-… (SEQ ID NO: 1); test: SPR, pMHC on streptavidin chip, soluble TCR as analyte, 1:1 binding model
[2] = molecular target: NY-ESO-1 and/or LAGE-1a peptide on HLA-A*02:01 (human); test: value quoted for comparison with 1G4LY; no measurement of 1G4 is described in this filing
[3] = molecular target: NY-ESO-1 and/or LAGE-1a peptide on HLA-A*02:01 (human); test: surface plasmon resonance; biotinylated pMHC on streptavidin chip, soluble TCR as analyte; 1:1 binding model; soluble, other
[4] = molecular target: NY-ESO-1 and/or LAGE-1a peptide on HLA-A*02:01 (human); test: surface plasmon resonance; biotinylated pMHC on streptavidin chip, soluble TCR 0 to 250 nM as analyte; 1:1 binding model; soluble, other

Substance: soluble 1G4LY TCR
- Kd [1]: 761 nM
- koff [1]: 0.0303 s⁻¹
- kon [1]: 39800 M⁻¹ s⁻¹

Substance: 1G4 TCR
- Kd [2]: 32000 nM

Substance: 1G4LY TCR
- koff [3]: 0.0303 s⁻¹
- kon [3]: 39800 M⁻¹ s⁻¹
- Kd [4]: 761 nM

From patent US20250263461A1
